Laboratory results from US6465430.
Bridges are numbered along the chain shown (N, C = ends). Where no end group is shown, it is not given here.

Biological target: soluble TPO-R (thrombopoietin receptor), immobilized (UniProt P40238 26-491)
Experiment: competition ELISA vs MBP-TPO156 (+: IC50 <=200 µM)

Chain of soluble TPO-R (thrombopoietin receptor), immobilized (P40238 26-491): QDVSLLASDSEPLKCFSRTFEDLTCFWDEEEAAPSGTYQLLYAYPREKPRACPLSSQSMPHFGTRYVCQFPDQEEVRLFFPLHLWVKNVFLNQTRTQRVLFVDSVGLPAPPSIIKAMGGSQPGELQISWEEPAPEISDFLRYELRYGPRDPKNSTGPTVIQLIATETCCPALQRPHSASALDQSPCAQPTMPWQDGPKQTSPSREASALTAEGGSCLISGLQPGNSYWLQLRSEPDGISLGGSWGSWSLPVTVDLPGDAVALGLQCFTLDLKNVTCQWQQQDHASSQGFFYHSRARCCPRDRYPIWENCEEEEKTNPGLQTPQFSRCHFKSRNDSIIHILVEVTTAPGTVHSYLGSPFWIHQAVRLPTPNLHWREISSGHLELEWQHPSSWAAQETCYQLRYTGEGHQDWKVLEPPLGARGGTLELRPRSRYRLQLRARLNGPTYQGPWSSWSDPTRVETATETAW

Row | Binder | IC50 [µM]
1 | CADGPTLREWASFC-NH2 (disulfide 1-14 (inferred)) [cyclized SEQ ID NO:12 compound, I - A] | 0.5 to 200
2 | CPTLREWISFC-NH2 (disulfide 1-11 (inferred)) [cyclized SEQ ID NO:12 compound, ADG - deletion] | 0.5 to 200
